Experimental data from paper PMC4599343 (Archives of biochemistry and biophysics, 2015).
Values belong to the molecule of their own block, whether it stands above or below them.

Tests used:
[1] = biological target: T1, CYP2B6 (Homo sapiens, UniProt P20813, Y226H/K262R); type: biochemical; conditions: reconstituted purified enzyme
T1 sequence (P20813 29-491 Y226H/K262R): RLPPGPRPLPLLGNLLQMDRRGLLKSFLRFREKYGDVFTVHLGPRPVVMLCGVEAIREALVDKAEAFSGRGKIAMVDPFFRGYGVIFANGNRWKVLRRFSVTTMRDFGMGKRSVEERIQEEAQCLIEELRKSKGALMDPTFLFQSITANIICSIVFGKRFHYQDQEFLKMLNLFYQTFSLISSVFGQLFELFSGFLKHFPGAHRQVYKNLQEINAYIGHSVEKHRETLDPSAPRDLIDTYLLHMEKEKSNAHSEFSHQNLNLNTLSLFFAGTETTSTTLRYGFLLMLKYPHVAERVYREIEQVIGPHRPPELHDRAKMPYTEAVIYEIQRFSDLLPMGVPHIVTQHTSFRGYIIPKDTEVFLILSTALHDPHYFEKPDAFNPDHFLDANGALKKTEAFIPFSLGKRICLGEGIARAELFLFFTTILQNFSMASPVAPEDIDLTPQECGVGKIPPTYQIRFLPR

[2] = biological target: T2, CYP2B6 (Homo sapiens, UniProt P20813, K262R/Y226H); assay: biochemical
T2 sequence (P20813 29-491 Y226H/K262R): T1 sequence (P20813 29-491 Y226H/K262R)

[3] = substrate: O=c1ccc2nc3ccc(OCc4ccccc4)cc3oc-2c1; assay: steady-state O-debenzylation kinetics, reconstituted purified enzyme; type: biochemical, Oryctolagus cuniculus; conditions: heme
[4] = substrate: CCOc1ccc2c(C(F)(F)F)cc(=O)oc2c1; assay: steady-state O-deethylation kinetics, reconstituted purified enzyme; type: biochemical, Oryctolagus cuniculus; conditions: heme

Km [1]: 6.2 ± 0.6 µM
Molecule: CCOc1ccc2c(C(F)(F)F)cc(=O)oc2c1 [7-EFC, 7-ethoxy-4-(trifluoromethyl)coumarin]

IC50 [2]: 739 ± 42.5 µM
Molecule: OC[C@H]1O[C@H](O[C@H]2[C@H](O)[C@@H](O)[C@H](OCCCCCC3CCCCC3)O[C@@H]2CO)[C@H](O)[C@@H](O)[C@@H]1O [CYMAL-5, 5-cyclohexyl-1-pentyl-β-D-maltoside]

B1: CYP2B4 (Oryctolagus cuniculus; H226Y) (protein)
chain: GRLPPGPSPLPVLGNLLQMDRKGLLRSFLRLREKYGDVFTVYLGSRPVVVLCGTDAIREALVDQAEAFSGRGKIAVVDPIFQGYGVIFANGERWRALRRFSLATMRDFGMGKRSVEERIQEEARCLVEELRKSKGALLDNTLLFHSITSNIICSIVFGKRFDYKDPVFLRLLDLFFQSFSLISSFSSQVFELFPGFLKYFPGTHRQIYRNLQEINTFIGQSVEKHRATLDPSNPRDFIDVYLLRMEKDKSDPSSEFHHQNLILTVLSLFFAGTETTSTTLRYGFLLMLKYPHVTERVQKEIEQVIGSHRPPALDDRAKMPYTDAVIHEIQRLGDLIPFGVPHTVTKDTQFRGYVIPKNTEVFPVLSSALHDPRYFETPNTFNPGHFLDANGALKRNEGFMPFSLGKRICLGEGIARTELFLFFTTILQNFSIASPVPPEDIDLTPRESGVGNVPPSYQIRFLAR
Km [3]: 1.03 ± 0.22 µM | kcat [3]: 0.03267 ± 0.000167 s⁻¹ | kcat/Km [3]: 31700 M⁻¹ s⁻¹ | Km [4]: 28.4 ± 7.6 µM | kcat [4]: 0.123 ± 0.0217 s⁻¹ | kcat/Km [4]: 4330 M⁻¹ s⁻¹
